# In IntAct's records for PubMed 22575647:
# B1: Nuclear receptor subfamily 0 group B member 2 (Homo sapiens), Q15466 (parent)
# chain: MSTSQPGACPCQGAASRPAILYALLSSSLKAVPRPRSRCLCRQHRPVQLCAPHRTCREALDVLAKTVAFLRNLPSFWQLPPQDQRRLLQGCWGPLFLLGLAQDAVTFEVAEAPVPSILKKILLEEPSSSGGSGQLPDRPQPSLAAVQWLQCCLESFWSLELSPKEYACLKGTILFNPDVPGLQAASHIGHLQQEAHWVLCEVLEPWCPAAQGRLTRVLLTASTLKSIPTSLLGDLFFRPIIGDVDIAGLLGDMLLLR
# Variants of: B1
# Conditions: with mdm2_human MDM2, Q00987
# Chain of mdm2_human MDM2, Q00987 (Q00987 whole entry, looked up): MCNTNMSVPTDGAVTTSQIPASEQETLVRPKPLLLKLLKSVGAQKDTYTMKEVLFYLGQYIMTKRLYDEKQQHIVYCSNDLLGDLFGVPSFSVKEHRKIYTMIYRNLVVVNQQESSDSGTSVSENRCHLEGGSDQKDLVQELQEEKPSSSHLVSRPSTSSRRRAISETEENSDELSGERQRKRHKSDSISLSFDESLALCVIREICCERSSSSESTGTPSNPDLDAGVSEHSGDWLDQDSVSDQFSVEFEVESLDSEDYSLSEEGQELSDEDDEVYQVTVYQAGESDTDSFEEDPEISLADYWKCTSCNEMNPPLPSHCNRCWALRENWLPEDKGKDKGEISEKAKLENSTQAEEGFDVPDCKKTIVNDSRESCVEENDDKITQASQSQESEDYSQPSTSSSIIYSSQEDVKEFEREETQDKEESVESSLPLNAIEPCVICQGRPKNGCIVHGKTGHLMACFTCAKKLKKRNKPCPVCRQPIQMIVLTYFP
row,effect of a mutation on the interaction,Variant
1,increasing interaction,K170N

# Variants of: B1
# Conditions: with mdm2_human MDM2, Q00987
# Remark: another data set of the same source
row,effect of a mutation on the interaction,Variant
1,disrupting interaction,K170R
